Results on one molecule are retold here after patent US20250215080A1 (published 2025).

Test [1] addresses T1, hTREM2 ECD (19-174)-hFc (human, UniProt Q9NZC2 19-174, biotinylated in the -bio form).
T1 construct: Plain and biotinylated forms are kept as one molecule; also called hTREM2 ECD (19-174)-hFc-bio; hTREM2 Fc
T1 sequence: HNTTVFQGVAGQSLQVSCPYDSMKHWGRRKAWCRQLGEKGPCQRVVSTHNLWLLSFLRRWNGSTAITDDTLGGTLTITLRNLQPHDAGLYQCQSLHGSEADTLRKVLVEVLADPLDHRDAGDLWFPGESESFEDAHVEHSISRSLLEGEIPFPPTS
The test is described as follows: direct ELISA. Here is the method: Antigens were immobilized on microtiter plates (see Table 8). Plates were blocked and incubated with antibodies such as Fab containing crude E. coli lysates or purified Fab or IgG samples. Bound antibodies were detected using respective alkaline-phosphatase (AP) coupled secondary antibodies in combination with ‘AttoPhos’ fluorescence substrate. Multiple washing steps were performed between individual assay steps.
Background: An ELISA detects its analyte on a solid surface through an enzyme-linked reagent.

Test [2] deals with T2, human TREM2 (hTREM2), expressed on cells (human, UniProt Q9NZC2 19-230).
T2 construct: Signal peptide 1-18 as stated left out; On CHO cells co-expressed with hDAP12; on hM2A macrophages endogenous; also called WT-TREM2; CHO-hDAP12-hTREM2
T2 sequence: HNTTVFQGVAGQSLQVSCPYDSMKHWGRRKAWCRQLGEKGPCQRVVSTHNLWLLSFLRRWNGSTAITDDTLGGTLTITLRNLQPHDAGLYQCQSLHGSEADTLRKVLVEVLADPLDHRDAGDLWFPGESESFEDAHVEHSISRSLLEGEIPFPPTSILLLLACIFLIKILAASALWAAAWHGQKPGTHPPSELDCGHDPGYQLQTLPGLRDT
Kind of test: FACS, CHO-DAP12-hTREM2 cells. On the technique in general: A flow cytometer gives signals particle by particle.

The target in test [3] is T2, human TREM2 (hTREM2), expressed on cells. The test is described as follows: FACS, hM2A macrophages.
The target is the same in test [4]. Kind of test: FACS, CHO-hDAP12-hTREM2 cells.
Test [5] concerns the target T3, cyTREM2 ECD (19-174)-APP-Avi (cynomolgus, UniProt A0A2K5UY34 49-204).
T3 construct: range 19-174
T3 sequence: T1 sequence with A10E, W60R, L89F, F125V
The test is described as follows: SPR Biacore. (Surface plasmon resonance follows binding to a sensor surface in real time, without labels.)

For test [6], the target named is T4, mTREM2 ECD (19-168)-His (mouse, UniProt Q99NH8 19-168).
T4 construct: range 19-168
T4 sequence (looked up): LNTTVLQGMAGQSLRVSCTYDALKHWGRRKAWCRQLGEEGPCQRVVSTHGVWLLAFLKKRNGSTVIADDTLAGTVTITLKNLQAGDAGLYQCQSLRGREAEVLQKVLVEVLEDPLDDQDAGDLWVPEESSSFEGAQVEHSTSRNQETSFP
The test is described as follows: SPR Biacore.

In test [7] the target is T5, hTREM2 ECD (19-174)-His (human, UniProt Q9NZC2 19-174).
T5 sequence: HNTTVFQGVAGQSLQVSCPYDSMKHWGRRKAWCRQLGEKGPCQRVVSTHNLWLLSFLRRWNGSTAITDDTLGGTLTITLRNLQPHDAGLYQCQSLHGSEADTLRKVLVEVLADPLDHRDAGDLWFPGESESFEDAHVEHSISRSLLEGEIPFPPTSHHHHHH
Kind of test: SPR Biacore.

Changes are numbered by the printed parent chain.

B1: MOR042596 (full IgG) (antibody, V domains shown)
VH: QVQLVQSGAEVKKPGASVKVSCKASGYTFTGYHMSWVRQAPGQGLEWMGVINPVSGNTVYAQKFQGRVTMTRDTSISTAYMELSRLRSEDTAVYYCARIPSYTYAFDYWGQGTLVTVSS
VL: DIQMTQSPSSLSASVGDRVTITCRASQDISNYLAWYQQKPGKAPKLLIYRASSLQSGVPSRFSGSGSGTDFTLTISSLQPEDFATYYCQQHGHSPTTFGQGTKVEIKR
notes: Parental antibody of MOR044698; VH1B k1
Consider B1, for which the EC50 in test [1] is 2.4 nM; in test [2] it was 3.4 nM; in test [3] it was 37 nM; in test [4], 3.4 nM. Also, the Kd came out at 6.6 nM in test [5], 0.9 nM in test [6] and 12 nM in test [7].

Broadly, the EC50 is the concentration giving half of the maximal effect.
